This passage reports Log2 enrichment ratio results from US20160376333A1 (University of Washington, published 2016).

Assay [1] deals with T1, Epstein-Barr virus BHRF1 a.a. 1-161 with C-terminal avi-6his tag (Epstein-Barr virus).
T1 construct: also called EBV BHRF1; BHRF1-biotin
T1 chain: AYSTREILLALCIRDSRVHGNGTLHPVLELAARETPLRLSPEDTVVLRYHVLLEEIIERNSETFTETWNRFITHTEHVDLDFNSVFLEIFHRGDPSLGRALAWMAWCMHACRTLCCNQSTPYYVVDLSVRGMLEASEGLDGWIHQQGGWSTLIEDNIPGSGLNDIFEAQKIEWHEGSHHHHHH
The assay is described as follows: yeast display library, FACS sort at 400 nM BHRF1, deep sequencing.

In assay [2] the target is T1, Epstein-Barr virus BHRF1 a.a. 1-161 …. Put plainly: yeast display library, FACS sort at 100 nM BHRF1, deep sequencing.

B1: Index 07 (designed binder)
chain: GEEFKKKLKKWEEWLLKATNEAENQARNMWQKAEQTDLEDQQRIRAVDFWIAIALMAIGDKFNADQEGDEEFEKYKKKGRASEDKIKEAKDERDRAKKRWEQFVKEAGERAFRGEQLG
For B1, the Log2 enrichment ratio in assay [1] is -1.16 log2; in assay [2], -2.79 log2.

B2: Index 14 (designed binder)
chain: GLSADDLFDYAEDRMREGWKDFEELAGEAEKKAKEHTLSDQERREATEKWIAAALELIGDAFNAIRWAEELGKLYVKLNLDDKQKVEELKKKLEERAKEEAQKARKRGDKLEDLADSG
On to B2, for which the results for the Log2 enrichment ratio in assay [1] and in assay [2] were -0.65 log2 and -2.91 log2, respectively.

B3: Index 22 (designed binder)
chain: GSSAEDLRDWARDQHEKDVDKMEKRLRLLYFELARKDFNEEELKKATEKWIAAALDAIGDHFNAALKARLLARDAAKKGLIDRNKLDEVEKMAELFEELGERKAALKGREFLRWVLLG
On to B3, for which the Log2 enrichment ratio is -2.4 log2 in assay [1] and -3.03 log2 in assay [2].

B4: Index 09 (designed binder)
chain: GKEAKKRIQEALEEAKRKAEKLLREHEKKKKEHLLGDKRDREKTEETDKWIAEALMLIGDIFNLYMKFEWEKEREKKLGLLREEEEKEVEDEAKDAYLKALKLAYLVSKKGHEVAELG
B4: the Log2 enrichment ratio in assay [1] is -2.05 log2; in assay [2], -2.55 log2.

B5: Index 66 (designed binder)
chain: GRSKDDATKEAWERLERLLKEFKEKAEKLRDKAQAHYVYKQFALKVTILWIAWALKLIGDAFNFIEEAEKKMRENRERNLISEDDAREEKRKLEEFARRASKKANKIGDDLDRQLELG
Consider B5, for which the values for the Log2 enrichment ratio in assay [1] and in assay [2] were -2.49 log2 and -2.03 log2, respectively.

B6: Index 20 (designed binder)
chain: GLRFEEIERYAREEADKIADEAKERFEKLKKLFLWLTDKDEERLKMTHLWIAGALEAIGDLFNAAELAKELAEKAARLTSQDANRRDEARKKIDEAEKEAADKVSKAAKEAAKFFEQG
On to B6, for which the figures for the Log2 enrichment ratio in assay [1] and in assay [2] were -3.65 log2 and -3.87 log2, respectively.

B7: Index 74 (designed binder)
chain: GTDHQAFDEWARRELERIVEEARERAERLREWIEQKDASREELTKFFAIWIAISLMAIGDLFNVKEQAKRLAELLEFLGLQRKEEIEKSKKNAEKLADEAMKKASKLDAKVEKELMQG
For the molecule B7, the figures for the Log2 enrichment ratio in assay [1] and in assay [2] were -2.62 log2 and -3.38 log2, respectively.

B8: Index 19 (designed binder)
chain: GERVEEILRKMLDDALLHFLEHRDDARERKERGERHQPRDEEREELSHDWIAAALMAIGDIFNAKLRAEERAEEFLKWGLRSQDDKKELEERAKEAAKIALKWAEEAGKEADEAEKAG
For B8, the Log2 enrichment ratio in assay [1] is -1.98 log2; in assay [2], -2.97 log2.

B9: Index 73 (designed binder)
chain: GKDLDEIIDEARKEMDDDADDGKKKAEKLLKLHAGTNHSQDDFNEAHRRWIAVALEEIGDLFNAALRAWRKIEEEIRKNQRRKEEAEKAKEKVSKEYERASRKAAELGKEFEERVEQG
With B9, the Log2 enrichment ratio in assay [1] is -2.27 log2; in assay [2] it was -3.14 log2.

B10: Index 06 (designed binder)
chain: GRSANDILKQFLEMLQEALRKFDEKKNKIEDEWKQFDLSTQRREEATHKWIAAALMAIGDMFNALRWALEEALKAKLKNLQSSDDLKEAIERMMKLMLEKAQEIQEKGRELADKIEQG
With B10, the Log2 enrichment ratio in assay [1] was -1.45 log2; in assay [2] it was -2.35 log2.

B11: Index 12 (designed binder)
chain: GEDDDKVLKWALEALRKVLDEAKEKLEKLKKYTDGDGFGEDYRREFFRKWIAIALEAIGDIFNIMMEALQKADKHKKLNTHDSQKADEAKEKIKKFADEAEERAKELAKKGEAWLLKG
For the molecule B11, the figures for the Log2 enrichment ratio in assay [1] and in assay [2] were -1.37 log2 and -2.56 log2, respectively.

B12: Index 21 (designed binder)
chain: GFDWKKVLDKAKDLAENDVREAKQKLEEFYKKAMKLDLTQEMRRKLMLEWIAAMLMAIGDIFNAIEQGKQEADKLKKLGKVLSQLLDELKRRLEELKEEAALKAHDFGREFELKLLFG
notes: also called computational precursor for BbpD04
Take B12: the Log2 enrichment ratio in assay [1] was -2.81 log2; in assay [2], -3.38 log2.

B13: Index 10 (designed binder)
chain: GDSDDDDLKDALLRMLWAAAQAIYHSLENMERKEKFDMHFEEERRDTLQWIADALRAIGDAFNEMMRRRRELEKKRENNIISEQRARLYEEFLKRFAEWASRELAKAGKKEANKLNEG
As for B13, the Log2 enrichment ratio in assay [1] was 0.62 log2; in assay [2], -0.72 log2.

B14: Index 71 (designed binder)
chain: GERAERARDWAKDQMDDELEKAREKLWKLAFIAFKFYLKLELLFKLMFRWIAIMLEAIGDFFNVWAIAKRWLERYKLQNNIRKEEIEKAKERAKKLYEEAADKAAKLGRFYMKLLTSG
As for B14, the results for the Log2 enrichment ratio in assay [1] and in assay [2] were -3.07 log2 and -2.58 log2, respectively.

B15: Index 23 (designed binder)
chain: GEDEEKDHKDTEEKARRLHERARDMLDKVKDLEEKTDAQDNERRRATHDWIAAALMMIGDAFNSFEDTKRRAEKKRELNLISEDEAKEKIKRAEELRKRIYELLKKAAEFAREAEKGG
B15: the Log2 enrichment ratio was -0.17 log2 in assay [1] and -1.72 log2 in assay [2].

B16: Index 68 (designed binder)
chain: GVSIEWAFDFLENKAEEDAREARRLAQKLAEEFFKHSAREEDRAKLTKKWIAVALMIIGDIFNVEQFTKQQGEEFVKRGLRSEDDFKEYLRKMEEKKEEAERIAKRAKDDMLKARDLG
Take B16: the Log2 enrichment ratio in assay [1] was -3.63 log2; in assay [2], -2.57 log2.

B17: Index 05 (designed binder)
chain: GKDADKKKDEAKKKAEWKEREVFERLEKMEWKKRKDSVSKDDARKFTLKWIADDLELIGDLFNLKEEAREVAEDAARNNQITEEQREEDEKDLEKLAKEHSWRAAYRGKLKAKEFWEG
On to B17, for which the figures for the Log2 enrichment ratio in assay [1] and in assay [2] were -0.83 log2 and -2.5 log2, respectively.

B18: Index 17 (designed binder)
chain: GRSAEIMREILEKQAEDDAKKIRDIAQKWKERRKRYDPRDEEREEEVEKWIAFALMAIGDIFNLARWALLQARWERRWNLSHEDEGKNHEENVKDAEDRAHWKAREAAREGAKMSWEG
Regarding B18, the Log2 enrichment ratio in assay [1] is -2.54 log2; in assay [2], -3.41 log2.

B19: Index 70 (designed binder)
chain: GLLWLAIILKAEELARKKDDEAEERIRRLEDEKRKGDPGTLGEAERTDRWIAIMLMAIGDAFNVMLEAKEEAEKLEKLGLVHKELLEKVKEEAERLFERSSDNFEEAAKRADDMEKEG
With B19, the Log2 enrichment ratio is -3.13 log2 in assay [1] and -3.02 log2 in assay [2].

B20: Index 11 (designed binder)
chain: GNILDEAKDEMREEMEKLWKKFKDEVEEERKEAEREEKHFQERAELTKRWIARALMAIGDMFNRFREAKEKLEKRRELGLISEEDARKALLLLEEFMRRMAEFAKKLGDDLMRDAEKG
For the molecule B20, the Log2 enrichment ratio is -1.55 log2 in assay [1] and -2.62 log2 in assay [2].

B21: Index 00 (Design BbpD04) (designed binder)
chain: GADWKKVLDKAKDIAENRVREIKQKLEEFYKKAMKLDLTQEMRRKLMLEWIAAMLMAIGDIFNAIEQAKQEADKLKKAGQVNSQLLDELKRRLEELKEEASRKCHDYGREFQLKLEYG
With B21, the results for the Log2 enrichment ratio in assay [1] and in assay [2] were 3.19 log2 and 3.92 log2, respectively.

B22: Index 72 (designed binder)
chain: GGSYDDIADLAKKLHKKIAEEAKKKIDELLKEAFEDKPYEEEFAKKMFKWIAIALMAIGDLFNAAELAKRLAEDLKKDNNRDENKAEEAKQRAEQFEKEGAEELAKKGEEAAKKLAGG
Take B22: the Log2 enrichment ratio is -3.47 log2 in assay [1] and -3.34 log2 in assay [2].

B23: Index 24 (designed binder)
chain: GELAREAAEEAHRRVEEDARDAKNRLDEFKKRYKITQLSKSDISRATALWIAAALDAIGDIFNAKQKAEKILGLWYKLGLVQLQEFLEKEDKARYHWQAALERAFEAGRDMLEVAAYG
Consider B23, for which the figures for the Log2 enrichment ratio in assay [1] and in assay [2] were -2.95 log2 and -3.02 log2, respectively.

B24: Index 69 (designed binder)
chain: GEQAEKALRRAKRRAKWGLDDAKDILDDIEAEIRWYYPRDEERFKFVDRWIAAMLMVIGDLFNAKREALERALRLMRKGLISQDQFKKFMEKLEKIILWGKFQARKLGREKESEITQG
Turning to B24, the Log2 enrichment ratio in assay [1] was -3.99 log2; in assay [2] it was -3.25 log2.

B25: Index 08 (designed binder)
chain: GWDARRALKYVYERMREDLEYARNQIDNMEDRADQYDARTEERKEFTKRWIALALMLIGDGFNAFERAKEWIDDGKNNNQRSSDEADYAKDEALKFIFYAAFEARRKGDELDKKAEGG
As to B25, the Log2 enrichment ratio in assay [1] is -0.8 log2; in assay [2] it was -3.06 log2.

B26: Index 13 (designed binder)
chain: GSKWEEDREKAKREAEKKLDEAKDKLDLYKDFALRFDASDELKTKWTLEWIALALEMIGDVFNYALEAKEFAEKKARNNLLLDDLKDLYKLYLALLAKEESKKAIEEGDKLREAIEKG
Turning to B26, the Log2 enrichment ratio in assay [1] is -1.6 log2; in assay [2], -3.07 log2.

B27: Index 18 (designed binder)
chain: GGTEDDIKDLAEKWRDDMKKEFLREFLRIKEWTKYWGWREEGRKLATLRWIALSLMHIGDLFNLKELAKKLVDDIKKKGLEHEERAERAREEAEKIMEKAAKLDSILSKLAAKLIEEG
As to B27, the figures for the Log2 enrichment ratio in assay [1] and in assay [2] were 0.98 log2 and -1.36 log2, respectively.
